Reference: paper doi:10.1101/2024.12.02.626349

Molecular target: endogenous UBR4 tagged with FLAG at the UBR4 locus (human (endogenous in HEK293T)) (UniProt Q5T4S7)
Test: cryo-EM structure

Chain of endogenous UBR4 tagged with FLAG at the UBR4 locus (Q5T4S7 whole entry): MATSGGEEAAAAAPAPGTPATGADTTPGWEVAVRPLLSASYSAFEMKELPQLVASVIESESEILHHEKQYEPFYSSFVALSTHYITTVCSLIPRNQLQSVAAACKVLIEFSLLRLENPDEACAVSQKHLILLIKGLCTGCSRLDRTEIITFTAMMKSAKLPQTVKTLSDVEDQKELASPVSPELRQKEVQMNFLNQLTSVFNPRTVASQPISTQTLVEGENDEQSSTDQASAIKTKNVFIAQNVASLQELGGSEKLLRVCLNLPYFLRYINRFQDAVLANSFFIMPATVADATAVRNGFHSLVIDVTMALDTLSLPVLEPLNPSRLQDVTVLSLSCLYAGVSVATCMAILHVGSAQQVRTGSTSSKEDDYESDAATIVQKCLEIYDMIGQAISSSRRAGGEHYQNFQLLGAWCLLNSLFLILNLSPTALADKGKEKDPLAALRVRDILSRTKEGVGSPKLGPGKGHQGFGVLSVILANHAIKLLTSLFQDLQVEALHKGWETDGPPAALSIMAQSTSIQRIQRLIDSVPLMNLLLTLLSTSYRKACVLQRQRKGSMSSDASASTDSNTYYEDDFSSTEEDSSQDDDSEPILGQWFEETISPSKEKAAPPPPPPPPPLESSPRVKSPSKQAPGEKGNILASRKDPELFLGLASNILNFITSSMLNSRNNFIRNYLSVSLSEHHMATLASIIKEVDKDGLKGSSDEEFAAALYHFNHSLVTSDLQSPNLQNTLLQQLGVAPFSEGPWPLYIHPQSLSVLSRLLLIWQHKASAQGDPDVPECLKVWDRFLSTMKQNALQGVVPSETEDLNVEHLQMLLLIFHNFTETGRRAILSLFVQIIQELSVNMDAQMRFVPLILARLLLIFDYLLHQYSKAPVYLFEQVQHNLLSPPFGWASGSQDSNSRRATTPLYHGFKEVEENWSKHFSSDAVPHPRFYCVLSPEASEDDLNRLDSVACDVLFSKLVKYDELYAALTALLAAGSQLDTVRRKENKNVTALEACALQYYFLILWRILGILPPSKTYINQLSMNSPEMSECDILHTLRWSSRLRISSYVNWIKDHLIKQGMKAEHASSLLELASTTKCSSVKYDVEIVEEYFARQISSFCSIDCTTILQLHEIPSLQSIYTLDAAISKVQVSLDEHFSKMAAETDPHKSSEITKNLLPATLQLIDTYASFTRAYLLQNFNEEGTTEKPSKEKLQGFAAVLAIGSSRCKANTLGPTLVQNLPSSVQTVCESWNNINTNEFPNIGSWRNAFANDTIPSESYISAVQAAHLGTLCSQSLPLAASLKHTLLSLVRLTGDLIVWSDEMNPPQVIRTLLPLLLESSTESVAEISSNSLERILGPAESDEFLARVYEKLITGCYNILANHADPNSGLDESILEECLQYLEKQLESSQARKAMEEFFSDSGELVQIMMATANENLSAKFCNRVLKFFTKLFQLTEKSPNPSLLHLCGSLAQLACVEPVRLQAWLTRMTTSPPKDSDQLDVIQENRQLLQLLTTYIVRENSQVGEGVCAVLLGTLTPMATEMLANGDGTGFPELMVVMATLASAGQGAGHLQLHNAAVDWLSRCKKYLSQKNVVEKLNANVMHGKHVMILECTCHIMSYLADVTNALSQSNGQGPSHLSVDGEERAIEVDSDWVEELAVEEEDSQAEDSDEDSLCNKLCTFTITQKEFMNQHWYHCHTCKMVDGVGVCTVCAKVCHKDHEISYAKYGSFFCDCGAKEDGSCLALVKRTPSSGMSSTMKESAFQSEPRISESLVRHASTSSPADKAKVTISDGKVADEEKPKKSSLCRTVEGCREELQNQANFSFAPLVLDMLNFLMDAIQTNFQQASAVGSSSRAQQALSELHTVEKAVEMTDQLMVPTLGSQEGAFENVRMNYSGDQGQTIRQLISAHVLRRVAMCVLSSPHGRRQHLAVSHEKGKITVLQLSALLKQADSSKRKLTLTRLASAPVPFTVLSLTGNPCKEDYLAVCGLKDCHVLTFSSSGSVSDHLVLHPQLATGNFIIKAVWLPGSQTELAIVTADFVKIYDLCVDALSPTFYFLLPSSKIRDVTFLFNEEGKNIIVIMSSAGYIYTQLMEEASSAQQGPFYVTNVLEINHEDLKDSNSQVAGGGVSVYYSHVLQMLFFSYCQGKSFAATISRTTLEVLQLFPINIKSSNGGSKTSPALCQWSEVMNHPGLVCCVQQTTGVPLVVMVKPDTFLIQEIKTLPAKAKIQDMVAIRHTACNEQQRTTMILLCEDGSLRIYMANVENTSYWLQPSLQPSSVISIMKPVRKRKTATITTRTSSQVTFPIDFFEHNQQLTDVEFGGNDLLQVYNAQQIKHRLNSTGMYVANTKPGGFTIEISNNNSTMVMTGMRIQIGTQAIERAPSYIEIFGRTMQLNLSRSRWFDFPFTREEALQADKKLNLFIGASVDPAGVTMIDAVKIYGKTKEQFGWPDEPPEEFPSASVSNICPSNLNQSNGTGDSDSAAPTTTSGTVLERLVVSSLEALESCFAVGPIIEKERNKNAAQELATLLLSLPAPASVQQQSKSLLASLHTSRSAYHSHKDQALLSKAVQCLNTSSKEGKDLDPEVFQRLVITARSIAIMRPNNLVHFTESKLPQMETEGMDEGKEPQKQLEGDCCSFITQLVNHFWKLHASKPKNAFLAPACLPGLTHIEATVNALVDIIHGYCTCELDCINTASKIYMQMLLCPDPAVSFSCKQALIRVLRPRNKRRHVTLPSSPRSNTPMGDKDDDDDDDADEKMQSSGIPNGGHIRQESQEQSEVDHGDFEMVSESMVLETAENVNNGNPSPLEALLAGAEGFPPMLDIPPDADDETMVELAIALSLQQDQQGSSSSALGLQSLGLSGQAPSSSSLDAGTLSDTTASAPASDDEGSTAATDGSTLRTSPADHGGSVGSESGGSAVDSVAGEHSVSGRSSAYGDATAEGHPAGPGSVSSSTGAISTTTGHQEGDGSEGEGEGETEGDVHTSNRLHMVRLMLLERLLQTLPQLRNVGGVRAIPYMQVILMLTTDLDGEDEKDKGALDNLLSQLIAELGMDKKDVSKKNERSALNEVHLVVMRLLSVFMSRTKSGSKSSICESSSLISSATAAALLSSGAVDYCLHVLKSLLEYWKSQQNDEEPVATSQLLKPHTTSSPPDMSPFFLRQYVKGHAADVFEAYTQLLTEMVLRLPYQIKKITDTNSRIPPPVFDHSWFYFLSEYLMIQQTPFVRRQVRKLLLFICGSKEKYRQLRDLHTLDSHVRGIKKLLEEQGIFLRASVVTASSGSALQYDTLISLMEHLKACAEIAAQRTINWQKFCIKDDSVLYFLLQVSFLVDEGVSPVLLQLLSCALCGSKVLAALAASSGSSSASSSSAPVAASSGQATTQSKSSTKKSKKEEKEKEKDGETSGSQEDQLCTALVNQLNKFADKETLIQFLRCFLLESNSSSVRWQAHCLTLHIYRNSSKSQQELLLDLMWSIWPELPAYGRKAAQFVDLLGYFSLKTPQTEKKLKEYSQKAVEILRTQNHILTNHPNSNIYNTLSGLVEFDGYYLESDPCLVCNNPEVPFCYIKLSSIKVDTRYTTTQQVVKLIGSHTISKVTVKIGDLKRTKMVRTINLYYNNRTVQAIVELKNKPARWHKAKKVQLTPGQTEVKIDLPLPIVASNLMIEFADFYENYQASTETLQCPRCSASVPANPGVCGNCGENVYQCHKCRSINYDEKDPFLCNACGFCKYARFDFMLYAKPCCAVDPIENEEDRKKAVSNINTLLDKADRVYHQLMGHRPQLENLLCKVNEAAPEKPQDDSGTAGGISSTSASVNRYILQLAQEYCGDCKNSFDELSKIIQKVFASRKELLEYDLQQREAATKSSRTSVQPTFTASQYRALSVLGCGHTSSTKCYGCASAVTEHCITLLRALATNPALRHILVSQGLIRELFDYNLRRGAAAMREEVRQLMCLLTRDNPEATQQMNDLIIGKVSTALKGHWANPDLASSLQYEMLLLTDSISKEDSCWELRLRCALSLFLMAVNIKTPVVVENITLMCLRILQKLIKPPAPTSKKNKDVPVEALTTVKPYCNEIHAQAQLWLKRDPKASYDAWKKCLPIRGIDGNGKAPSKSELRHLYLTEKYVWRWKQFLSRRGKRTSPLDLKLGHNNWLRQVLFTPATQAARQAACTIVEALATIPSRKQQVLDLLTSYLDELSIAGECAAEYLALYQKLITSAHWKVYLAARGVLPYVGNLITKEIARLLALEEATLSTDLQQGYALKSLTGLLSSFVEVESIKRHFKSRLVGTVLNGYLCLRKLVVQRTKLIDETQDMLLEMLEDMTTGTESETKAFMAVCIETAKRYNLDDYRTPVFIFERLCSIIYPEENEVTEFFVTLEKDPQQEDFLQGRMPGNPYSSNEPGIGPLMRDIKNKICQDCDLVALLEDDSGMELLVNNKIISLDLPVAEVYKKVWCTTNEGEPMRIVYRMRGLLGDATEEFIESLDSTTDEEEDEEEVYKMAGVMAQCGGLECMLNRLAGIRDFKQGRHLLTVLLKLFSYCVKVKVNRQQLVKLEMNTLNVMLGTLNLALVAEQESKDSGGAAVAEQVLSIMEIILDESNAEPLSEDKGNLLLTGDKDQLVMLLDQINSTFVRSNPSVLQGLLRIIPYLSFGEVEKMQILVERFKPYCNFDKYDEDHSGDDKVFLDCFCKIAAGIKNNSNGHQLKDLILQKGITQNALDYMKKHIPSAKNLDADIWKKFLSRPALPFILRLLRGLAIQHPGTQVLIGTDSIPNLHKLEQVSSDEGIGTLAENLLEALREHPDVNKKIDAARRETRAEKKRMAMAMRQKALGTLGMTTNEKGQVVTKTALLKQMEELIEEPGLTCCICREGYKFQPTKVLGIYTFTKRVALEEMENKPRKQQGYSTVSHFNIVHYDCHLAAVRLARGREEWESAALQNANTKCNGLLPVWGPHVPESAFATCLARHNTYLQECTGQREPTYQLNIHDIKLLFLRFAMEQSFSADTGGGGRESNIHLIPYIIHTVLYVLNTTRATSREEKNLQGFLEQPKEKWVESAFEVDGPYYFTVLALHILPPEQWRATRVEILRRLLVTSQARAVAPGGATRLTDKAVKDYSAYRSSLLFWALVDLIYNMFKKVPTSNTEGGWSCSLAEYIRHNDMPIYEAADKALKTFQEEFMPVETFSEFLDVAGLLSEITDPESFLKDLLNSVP

## endogenous UBR4 tagged with FLAG at the UBR4 locus (from UniProt Q5T4S7-1 1-5183) (natural protein)
  stoichiometry N: 2
